Molecular target: human Cul3 N-terminal domain (NTD, residues M1-L388) with the engineered mutations I342R and L346D (human, UniProt Q13618 1-388, I342R | L346D)
Test: ITC

Sequence of human Cul3 N-terminal domain (NTD, residues M1-L388) with the engineered mutations I342R and L346D (Q13618 1-388 I342R/L346D): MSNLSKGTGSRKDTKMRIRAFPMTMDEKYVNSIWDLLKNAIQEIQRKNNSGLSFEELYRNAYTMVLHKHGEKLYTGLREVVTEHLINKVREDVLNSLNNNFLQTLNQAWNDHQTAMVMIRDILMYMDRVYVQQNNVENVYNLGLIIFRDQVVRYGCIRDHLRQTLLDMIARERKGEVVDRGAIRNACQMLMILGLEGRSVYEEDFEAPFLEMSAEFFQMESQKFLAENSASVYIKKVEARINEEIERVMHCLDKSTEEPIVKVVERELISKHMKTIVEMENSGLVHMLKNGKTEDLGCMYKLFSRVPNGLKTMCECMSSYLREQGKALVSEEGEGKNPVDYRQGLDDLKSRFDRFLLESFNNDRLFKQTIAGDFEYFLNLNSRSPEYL

B1: KCTD17 BTB + CTD multi-domain construct (residues G20-Q220), tag cleaved (domain or fragment)
chain: SMGAGGRAAGGWGKWVRLNVGGTVFLTTRQTLCREQKSFLSRLCQGEELQSDRDETGAYLIDRDPTYFGPILNFLRHGKLVLDKDMAEEGVLEEAEFYNIGPLIRIIKDRMEEKDYTVTQVPPKHVYRVLQCQEEELTQMVSTMSDGWRFEQLVNIGSSYNYGSEDQAEFLCVVSKELHSTPNGLSSESSRKTKSTEEQLEEQ
In the case of B1, the Kd is reported as 0.012 µM.

Reference: PMC5664961 (2017)
